Results from article PMC10372576 (Proceedings of the National Academy of Sciences of the …, 2023).

Target: T1, S.c. Mon1–Ccz1 complex (wild type) (Saccharomyces cerevisiae, UniProt P53129;P38273)
T1 sequence 1: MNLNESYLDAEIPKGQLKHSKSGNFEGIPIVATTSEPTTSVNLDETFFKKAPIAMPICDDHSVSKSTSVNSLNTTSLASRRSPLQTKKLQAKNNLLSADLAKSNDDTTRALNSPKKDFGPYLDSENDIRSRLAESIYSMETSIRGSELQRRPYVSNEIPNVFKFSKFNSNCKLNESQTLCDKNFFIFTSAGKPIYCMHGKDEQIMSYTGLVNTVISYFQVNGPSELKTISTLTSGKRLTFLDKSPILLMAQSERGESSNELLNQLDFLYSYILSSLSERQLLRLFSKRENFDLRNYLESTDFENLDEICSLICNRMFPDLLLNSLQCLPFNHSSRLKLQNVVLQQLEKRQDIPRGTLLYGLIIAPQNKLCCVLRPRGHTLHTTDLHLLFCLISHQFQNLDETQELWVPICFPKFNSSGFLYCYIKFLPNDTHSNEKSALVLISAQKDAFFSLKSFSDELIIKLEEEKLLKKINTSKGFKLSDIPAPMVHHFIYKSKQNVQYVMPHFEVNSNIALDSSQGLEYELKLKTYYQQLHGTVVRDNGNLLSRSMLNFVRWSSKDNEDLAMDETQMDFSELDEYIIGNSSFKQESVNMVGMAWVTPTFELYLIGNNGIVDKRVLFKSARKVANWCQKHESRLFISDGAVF
T1 sequence 2: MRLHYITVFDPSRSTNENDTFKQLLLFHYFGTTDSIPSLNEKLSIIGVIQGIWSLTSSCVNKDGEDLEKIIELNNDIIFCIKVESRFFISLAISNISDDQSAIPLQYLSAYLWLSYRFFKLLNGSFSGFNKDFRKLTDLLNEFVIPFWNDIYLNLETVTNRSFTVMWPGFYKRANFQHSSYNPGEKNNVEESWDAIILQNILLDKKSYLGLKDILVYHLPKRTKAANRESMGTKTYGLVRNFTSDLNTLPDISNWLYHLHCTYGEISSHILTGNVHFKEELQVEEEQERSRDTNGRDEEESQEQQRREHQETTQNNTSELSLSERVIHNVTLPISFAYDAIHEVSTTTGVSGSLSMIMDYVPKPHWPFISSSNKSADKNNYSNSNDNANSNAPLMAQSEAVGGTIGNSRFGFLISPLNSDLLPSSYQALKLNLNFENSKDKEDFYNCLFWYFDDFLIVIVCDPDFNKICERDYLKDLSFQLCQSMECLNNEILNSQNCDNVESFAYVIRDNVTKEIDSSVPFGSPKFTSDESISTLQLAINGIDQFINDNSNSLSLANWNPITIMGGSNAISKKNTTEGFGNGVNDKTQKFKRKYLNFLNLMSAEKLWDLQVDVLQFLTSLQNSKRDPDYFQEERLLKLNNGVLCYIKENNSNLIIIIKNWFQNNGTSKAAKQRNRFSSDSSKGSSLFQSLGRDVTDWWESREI
Assay: pull-down

B1: GST-Ypt10 (natural protein)
chain: MEATIKVVLLGDSSVGKTSIVTRLKSGKFLAKHAATIGAAFITKTIEVPSNDSSTEKRIHMEIWDTAGQERYKSLVPMYYRDANIALIVFELGDVSSLQCAKTWFQDLQDRAQGTQVIIVGNKYDLVCEEHSGEVTIPAELQGLPYVAVSAKTGYNFDTLNKIIISLVPESQFKTLSKNNEQGNILEINKKKSGSGCIC
  binding result: binds
